Consider one substance from paper PMC3260337.

The target of assay [1] is AS15[H33R] monobody, displayed on yeast. The assay is described as follows: flow cytometry on cells.
Assay [2] has as its target AS27[Y33R] monobody, displayed on yeast. The assay is described as follows: flow cytometry on cells.

Substance “Abl SH2 domain, biotinylated (for yeast display measurements) (from UniProt P00519 112-232) (domain or fragment)” displayed a fold reduction of affinity against AS15 in assay [1] of 4 times. This substance showed a fold reduction of affinity against AS27 in assay [2] of 8 times.
